Assay results from paper doi:10.1101/2021.01.14.426634 (bioRxiv, 2021).
Several values for one entry are separate records, joined by “and”; a condition that tells them apart may be missing. Equal values may be shown once. Read-outs that look alike come from different tables or passages of the source.

B1: Homo sapiens CALHM1 with a 2x FLAG tag at the C-terminus, expressed in HEK293T cells (natural protein, H. sapiens, UniProt Q8IU99 1-346, looked up)
chain: MMDKFRMIFQFLQSNQESFMNGICGIMALASAQMYSAFDFNCPCLPGYNAAYSAGILLAPPLVLFLLGLVMNNNVSMLAEEWKRPLGRRAKDPAVLRYMFCSMAQRALIAPVVWVAVTLLDGKCFLCAFCTAVPVSALGNGSLAPGLPAPELARLLARVPCPEIYDGDWLLAREVAVRYLRCISQALGWSFVLLTTLLAFVVRSVRPCFTQAAFLKSKYWSHYIDIERKLFDETCTEHAKAFAKVCIQQFFEAMNHDLELGHTHGTLATAPASAAAPTTPDGAEEEREKLRGITDQGTMNRLLTSWHKCKPPLRLGQEEPPLMGNGWAGGGPRPPRKEVATYFSKV

What was measured:
[1] = target: Danio rerio calcium hemostasis modulator 1 (drCALHM1), full length, purified channel (Danio rerio) (UniProt E7F2J4); assay: cryo-EM structure
[2] = target: Danio rerio calcium hemostasis modulator 1 (drCALHM1), full length, purified channel (Danio rerio) (UniProt E7F2J4); assay: cryo-EM structure; remark: listed apart in the source
[3] = target: Danio rerio calcium hemostasis modulator 1 (drCALHM1), full length, purified channel (Danio rerio) (UniProt E7F2J4); assay: cryo-EM structure; remark: listed apart in the source
cross-linking [4] = target: the molecule itself; assay: cross-linking
cross-linking [5] = target: the molecule itself; assay: cross-linking; remark: listed apart in the source

Row | Molecule | stoichiometry N [1] | stoichiometry N [2] | stoichiometry N [3] | stoichiometry N (cross-linking [4]) | stoichiometry N (cross-linking [5])
1 | Danio rerio calcium hemostasis modulator 1 (drCALHM1), full length, purified channel (from UniProt E7F2J4 1-346) (natural protein) | 7 | 8 | 7 and 8 | – | –
2 | B1 | – | – | – | 8 | 7
